In article PMC11490872, “Drug-resistant menin variants retain high binding affinity and interactions with MLL1” (The Journal of Biological Chemistry, 2024):
Read-outs that look alike come from different tables or passages of the source.

How the values were obtained:
[1] = biological target: T1, menin^T349M bound to FLSN-MLL1^4-43 (Homo sapiens, UniProt O00255, T344M); assay: FP competition, displacement of FLSN-MLL1^4-43 from menin^T349M; assay type: binding
T1 construct: The gene encoding full-length human menin was cloned into a pET32a expression vector; thioredoxin-His6 (cleaved yes); made in house; host or cells: E. coli BL21(DE3); probe peptide from GenScript
T1 sequence (O00255 1-610 T344M): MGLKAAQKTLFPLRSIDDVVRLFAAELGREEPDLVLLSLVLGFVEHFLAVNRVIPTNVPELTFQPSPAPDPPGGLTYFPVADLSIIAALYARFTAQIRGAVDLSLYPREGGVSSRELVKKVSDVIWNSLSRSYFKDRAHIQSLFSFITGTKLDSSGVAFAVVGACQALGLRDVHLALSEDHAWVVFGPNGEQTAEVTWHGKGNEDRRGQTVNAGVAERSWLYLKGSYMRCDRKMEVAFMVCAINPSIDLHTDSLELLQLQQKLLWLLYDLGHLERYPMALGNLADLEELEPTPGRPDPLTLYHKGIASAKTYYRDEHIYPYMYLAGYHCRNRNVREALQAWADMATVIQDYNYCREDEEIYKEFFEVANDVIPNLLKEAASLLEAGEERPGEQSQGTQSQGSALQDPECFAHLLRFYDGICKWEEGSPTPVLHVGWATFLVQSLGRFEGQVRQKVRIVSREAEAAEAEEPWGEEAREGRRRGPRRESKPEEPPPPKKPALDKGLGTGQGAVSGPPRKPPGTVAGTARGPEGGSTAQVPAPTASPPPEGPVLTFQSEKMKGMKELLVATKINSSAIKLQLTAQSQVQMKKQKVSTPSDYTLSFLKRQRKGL
Protocol: (§1) FP competition experiments used FLSN-MLL1^4-43 at 4 nM and menin at 4 nM against varying concentrations of unlabeled MLL1 peptides in FP buffer for IC50 determination. Protein-peptide complexes were incubated for 1 h before unlabeled peptide competitors were added to ensure complete binding. Unlabeled peptide competitors were incubated with the protein-peptide complexes for 3 h before measurement using the PHERAstar microplate reader ([25]). Experiments with Revumenib were run with the same steps and conditions but used 5% DMSO in the final solution. Kd and IC50 values were calculated using GraphPad Prism 10 by plotting mP values measured for each protein/MLL1 peptide or Revumenib as a function of protein/MLL1 peptide (or Revumenib) concentration ([25]). All FP binding and competition experiments were run in triplicate.

[2] = biological target: T2, menin^G331D-FLSN-MLL1^4-43 (Homo sapiens, UniProt O00255, G326D); assay: FP competition, displacement of FLSN-MLL1^4-43 from menin^G331D; assay type: binding
T2 construct: The gene encoding full-length human menin was cloned into a pET32a expression vector; thioredoxin-His6 (cleaved yes); made in house; host or cells: E. coli BL21(DE3); probe peptide from GenScript
T2 sequence (O00255 1-610 G326D): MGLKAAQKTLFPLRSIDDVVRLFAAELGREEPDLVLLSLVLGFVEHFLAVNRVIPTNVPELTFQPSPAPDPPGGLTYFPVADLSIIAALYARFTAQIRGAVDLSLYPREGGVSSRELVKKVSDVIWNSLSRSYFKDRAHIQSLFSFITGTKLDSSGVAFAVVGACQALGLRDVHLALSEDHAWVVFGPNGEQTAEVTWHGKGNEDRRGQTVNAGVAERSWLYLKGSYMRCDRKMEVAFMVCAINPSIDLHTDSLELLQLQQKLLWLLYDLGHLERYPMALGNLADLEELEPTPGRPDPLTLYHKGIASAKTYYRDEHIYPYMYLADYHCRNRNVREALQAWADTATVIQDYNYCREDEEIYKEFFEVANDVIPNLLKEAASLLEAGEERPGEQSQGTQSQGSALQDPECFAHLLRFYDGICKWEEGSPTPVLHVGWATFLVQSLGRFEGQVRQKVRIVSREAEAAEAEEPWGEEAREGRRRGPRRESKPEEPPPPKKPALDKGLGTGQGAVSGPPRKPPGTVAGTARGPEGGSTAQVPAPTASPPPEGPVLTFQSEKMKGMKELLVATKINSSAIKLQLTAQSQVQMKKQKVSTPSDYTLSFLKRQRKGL
Protocol: To better understand the mechanism of MLL1 binding with menin mutants, we performed FP competition experiments using FLSN-MLL1^4-43 as a fluorescent probe for competitive displacement by MLL1 peptides ([25]). First, we tested competition with MLL1^160 and found very similar IC50 values for wild-type menin and the three mutants M327I, T349M, and G331R, ranging between 4.1 and 8 nM (Fig. 3, A and B). […] We have hypothesized that the lack of competition with MLL1 for the menin^G331D mutant might result from a much slower dissociation rate of the menin^G331D–MLL1 complex, and to evaluate this we performed time-dependent competition experiments with MLL1^160 and MLL1^46. Standard conditions in the FP assay include 3 h incubations of the menin-FLSN-MLL1^4-43 complex with competitors.
as §1

[3] = FP competition with MLL1 fragments, 3 h incubation, N = 3, Fig. 3B, read-out: T349M IC50
[4] = FP competition with MLL1 fragments, 3 h incubation, N = 3, Fig. 3B, read-out: G331D IC50
[5] = time-dependent competition, 3 h, Fig. 3D, read-out: 3h IC50
[6] = time-dependent competition, 24 h, Fig. 3D, read-out: 24h IC50
[7] = time-dependent competition, 48 h, Fig. 3D, read-out: 48h IC50
[8] = time-dependent competition, 72 h, Fig. 3D, read-out: 72h IC50

MLL1^46: recombinant MLL1 fragment spanning amino acids 1–46, containing MBM1 and MBM2 (MAHSARWRFPARPGTTGGGGGGGRRGLGGAPRQRVPALLLPPGPPV; The printed 'Cys2' is Cys5 in the entry (peptide S4-A5-R6); Trx-His6 tag cl)
IC50 [1, 3]: 1.9 ± 0.5 nM | IC50 [2, 4]: > 200 nM | IC50 [2, 5]: > 200 nM | IC50 [2, 6]: 0.87 ± 0.8 nM | IC50 [2, 7]: 1.1 ± 0.6 nM | IC50 [2, 8]: 1 ± 0.2 nM

CCN(C(=O)c1cc(F)ccc1Oc1cncnc1N1CC2(CCN(C[C@H]3CC[C@H](NS(=O)(=O)CC)CC3)CC2)C1)C(C)C [Revumenib, reference compound]
IC50 ([1]; FP competition, 5% DMSO, 3 h, N = 3, Fig. 4A, read-out: IC50 (nM), menin variant T349M): 125 ± 11 nM | activity for the G331D variant ([2]; FP competition, 5% DMSO): no activity

B1: MLL1^160: N-terminal 160 amino acids of human MLL1, Cys2 mutated to alanine, recombinant (protein)
chain: MAHSARWRFPARPGTTGGGGGGGRRGLGGAPRQRVPALLLPPGPPVGGGGPGAPPSPPAVAAAAAAAGSSGAGVPGGAAAASAASSSSASSSSSSSSSASSGPALLRVGPGFDAALQVSAAIGTNLRRFRAVFGESGGGGGSGEDEQFLGFGSDEEVRVR
modifications: The printed 'Cys2' is the single N-terminal cysteine, Cys5 in the entry (peptide S4-A5-R6); Trx-His6 tag cleaved
IC50 [1, 3]: 4.4 ± 0.8 nM | IC50 ([2]; 24 to 72 h incubations, read-out: IC50 values, range over time points): 4.7 to 10.9 nM | IC50 [2, 4]: > 200 nM | IC50 [2, 5]: > 200 nM | IC50 [2, 6]: 4.73 ± 0.8 nM | IC50 [2, 7]: 10.9 ± 6.2 nM | IC50 [2, 8]: 7.9 ± 0.5 nM
